# According to paper PMC4176360, “Crystal structure of the catalytic core of Rad2: insights into the mechanism of substrate binding” (Nucleic Acids Research, 2014):
# Columns and labels:
# Sc-Rad2-ΔSC [1] = target: T1, Sc-Rad2-ΔSC (Saccharomyces cerevisiae, UniProt P07276 2-986, del112-731;del987-1031); assay: X-ray crystallography, 2.1 Å; Ca2+ at active site; K+ at H2TH; Crystallization at room temperature, protein:DNA 1:1.2, 10 mg/ml protein; protein in 20 mM HEPES pH 7.5, 150 mM KCl, 5 mM Ca acetate, 5% glycerol, 0.5 mM TCEP (complex I: 150 mM NaCl); point-mutant cleavage assays without a binding read-out not listed; settings: protein: recombinant; tags: 6xHis-SUMO removed by SENP; N-terminal Gly2 after cleavage; chain copies: 2; 14 complementary bp with TT overhangs on all four ends; in crystal 15-mer duplex with one T-T mismatch, 1 nt overhangs at one end and 2 nt at the other
# [2] = target: the molecule itself; assay: crystal structure; complex I: selenomethionine-labeled Rad2-ΔSC mixed with DNA at a 1:1.2 molar ratio, sitting-drop vapor diffusion, room temperature, reservoir 20% (v/v) ethylene glycol; space group P3(2)21, 2.75 Å
# Sc-Rad2-ΔSC [3] = target: T1, Sc-Rad2-ΔSC; assay: X-ray crystallography, 2.7 Å; Ca2+ at active site; K+ at H2TH; Crystallization at room temperature, protein:DNA 1:1.2, 10 mg/ml protein; protein in 20 mM HEPES pH 7.5, 150 mM KCl, 5 mM Ca acetate, 5% glycerol, 0.5 mM TCEP (complex I: 150 mM NaCl); point-mutant cleavage assays without a binding read-out not listed; settings: protein: recombinant; tags: 6xHis-SUMO removed by SENP; N-terminal Gly2 after cleavage; chain copies: 2; 15 bp with 4 nt overhangs on all four ends
# [4] = target: Sc-Rad2-ΔSC (complex I construct) (Saccharomyces cerevisiae, UniProt P07276 1-986, del112-731;del987-1031); assay: X-ray crystallography; non-productive complex; DNA largely disordered, backbone contacts H2TH of one subunit; Crystallization at room temperature, protein:DNA 1:1.2, 10 mg/ml protein; protein in 20 mM HEPES pH 7.5, 150 mM KCl, 5 mM Ca acetate, 5% glycerol, 0.5 mM TCEP (complex I: 150 mM NaCl); point-mutant cleavage assays without a binding read-out not listed; settings: protein: recombinant; tags: 6xHis-SUMO cleaved; two additional N-terminal residues left; chain copies: 2; duplex 12-15 bp with overhangs
# Sc-Rad2-ΔSC [5] = target: T1, Sc-Rad2-ΔSC; assay: X-ray crystallography, 2.4 Å; Ca2+ at active site; K+ at H2TH; Crystallization at room temperature, protein:DNA 1:1.2, 10 mg/ml protein; protein in 20 mM HEPES pH 7.5, 150 mM KCl, 5 mM Ca acetate, 5% glycerol, 0.5 mM TCEP (complex I: 150 mM NaCl); point-mutant cleavage assays without a binding read-out not listed; settings: protein: recombinant; tags: 6xHis-SUMO removed by SENP; N-terminal Gly2 after cleavage; chain copies: 2; 15 bp with 1 nt overhangs on all four ends
binder,measurement,setting,value
complex II DNA (dsDNA) DNA 1: TTAGGTGGACGGATCATT DNA 2: TTTGATCCGTCCACCTTT,binding result,Sc-Rad2-ΔSC [1],binds
"Sc-Rad2-ΔSC (Δ112-731, Δ987-1031) (enzyme, S. cerevisiae, UniProt P07276 1-986, looked up, selenomethionine-labeled (complex I), Rad2, S. cerevisiae, spacer residues 112-731 removed and C-terminus (residues 987-1031) removed; The dimer is seen in crystal complex I together with disordered DNA; The same construct, not selenomethionine-labeled, stands in complexes II-IV; also called Sc-Rad-ΔSC; catalytic core of Rad2; source: E. coli BL21 (DE3) Rosseta, purified (HisTrap, SENP cleavage, second HisTrap, Superdex 200); …) MGVHSFWDIAGPTARPVRLESLEDKRMAVDASIWIYQFLKAVRDQEGNAVKNSHITGFFRRICKLLYFGIRPVFVFDGGVPVLKRETIRQRKERRQGKRESAKSTARKLLANTTLSTSAERNVAENAFVEDELFEQQMKDKRDSDEVTMDMIKEVQELLSRFGIPYITAPMEAEAQCAELLQLNLVDGIITDDSDVFLFGGTKIYKNMFHEKNYVEFYDAESILKLLGLDRKNMIELAQLLGSDYTNGLKGMGPVSSIEVIAEFGNLKNFKDWYNNGQFDKRKQETENKFEKDLRKKLVNNEIILDDDFPSVMVYDAYMRPEVDHDTTPFVWGVPDLDMLRSFMKTQLGWPHEKSDEILIPLIRDV",binding result,[2],binds
complex IV DNA (dsDNA) DNA 1: TTTTGCTCCCTTGTCTCAGTTTT DNA 2: TTTTCTGAGACAAGGGAGCTTTT,binding result,Sc-Rad2-ΔSC [3],binds
complex I DNA (dsDNA) DNA 1: AAAGCTCTGACTCAG DNA 2: CTGAGTCAGAGCAAA,binding result,[4],binds
complex III DNA (dsDNA) DNA 1: TGCTCCCTTGTCTCAGT DNA 2: TCTGAGACAAGGGAGCT,binding result,Sc-Rad2-ΔSC [5],binds
